# PMC6948969, “Regulation of gene expression by the action of a fungal lncRNA on a transactivator”
# T1: Xyr1 (Xylanase regulator 1) (Trichoderma reesei, UniProt G0RLE8 1-920)
# T1 sequence: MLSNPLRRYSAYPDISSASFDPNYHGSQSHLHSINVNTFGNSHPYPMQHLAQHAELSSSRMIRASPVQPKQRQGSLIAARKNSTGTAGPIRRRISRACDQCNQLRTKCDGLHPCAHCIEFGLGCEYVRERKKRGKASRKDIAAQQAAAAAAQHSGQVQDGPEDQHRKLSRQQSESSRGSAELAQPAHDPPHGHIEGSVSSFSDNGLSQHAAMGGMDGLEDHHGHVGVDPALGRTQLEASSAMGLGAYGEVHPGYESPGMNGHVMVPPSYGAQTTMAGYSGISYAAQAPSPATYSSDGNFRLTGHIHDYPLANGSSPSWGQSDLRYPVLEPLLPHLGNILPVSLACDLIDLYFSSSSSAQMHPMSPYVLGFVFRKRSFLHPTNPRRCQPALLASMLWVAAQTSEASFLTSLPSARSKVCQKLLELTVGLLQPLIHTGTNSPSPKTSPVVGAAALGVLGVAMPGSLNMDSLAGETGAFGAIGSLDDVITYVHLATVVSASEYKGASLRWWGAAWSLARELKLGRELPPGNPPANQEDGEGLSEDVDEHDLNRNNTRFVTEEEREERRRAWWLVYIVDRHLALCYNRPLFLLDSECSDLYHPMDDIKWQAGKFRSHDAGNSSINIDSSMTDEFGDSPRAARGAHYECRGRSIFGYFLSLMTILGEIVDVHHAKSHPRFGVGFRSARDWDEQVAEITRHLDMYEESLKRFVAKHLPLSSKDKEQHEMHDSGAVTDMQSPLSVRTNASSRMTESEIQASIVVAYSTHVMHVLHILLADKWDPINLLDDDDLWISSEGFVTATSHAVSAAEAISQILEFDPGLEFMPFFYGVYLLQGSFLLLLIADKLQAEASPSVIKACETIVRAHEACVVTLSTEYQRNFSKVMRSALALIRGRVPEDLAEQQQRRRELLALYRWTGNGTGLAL
# Assays:
# [1] = target: T1, Xyr1 (Xylanase regulator 1); test: circular dichroism; 1.8 or 3.6 uM DNA, 0.5 uM Xyr1; larger loss of ellipticity at 222 nm than XBS; EMSA/RNA-EMSA: 10 mM Tricine, 50 mM NaCl, pH 7.4, 22 C, 10 min; gel 0.5x TBE, 4 C. CD: 50 mM Tris, 200 mM NaCl, 50 mM NaH2PO4, 10% glycerol, pH 7.5, 22 C; conditions: protein: recombinant; chain copies: 2; blunt
# [2] = target: T1, Xyr1 (Xylanase regulator 1); test: circular dichroism; 1.8 or 3.6 uM DNA, 0.5 uM Xyr1; EMSA/RNA-EMSA: 10 mM Tricine, 50 mM NaCl, pH 7.4, 22 C, 10 min; gel 0.5x TBE, 4 C. CD: 50 mM Tris, 200 mM NaCl, 50 mM NaH2PO4, 10% glycerol, pH 7.5, 22 C; conditions: protein: recombinant; chain copies: 2; blunt
Binder,binding result [1],binding result [2]
XRE probe (xyr1 promoter) (dsDNA) DNA 1: CACTGGATACCTACCTAGGTAGTCTGCAGCAGAAG DNA 2: CTTCTGCTGCAGACTACCTAGGTAGGTATCCAGTG,binds,–
XBS probe (xyn1 promoter) (dsDNA) DNA 1: TTGGCAGGCTAAATGCGACATCTTAGCCGGATGCA DNA 2: TGCATCCGGCTAAGATGTCGCATTTAGCCTGCCAA,–,binds
